Patent US20230270823A1 (WUXI BIOLOGICS IRELAND, published 2023)
Each block holds one binder with its values, some of them ahead of it.

How the values were obtained:
[1] = target: T1, IL-15Rβ/γ chain (IL-2Rβ and common gamma chain) on human CD8+ T cells and NK cells (human, UniProt P14784 27-551; P31785 23-369); test: cell-based or functional assay
T1 sequence (looked up) 1: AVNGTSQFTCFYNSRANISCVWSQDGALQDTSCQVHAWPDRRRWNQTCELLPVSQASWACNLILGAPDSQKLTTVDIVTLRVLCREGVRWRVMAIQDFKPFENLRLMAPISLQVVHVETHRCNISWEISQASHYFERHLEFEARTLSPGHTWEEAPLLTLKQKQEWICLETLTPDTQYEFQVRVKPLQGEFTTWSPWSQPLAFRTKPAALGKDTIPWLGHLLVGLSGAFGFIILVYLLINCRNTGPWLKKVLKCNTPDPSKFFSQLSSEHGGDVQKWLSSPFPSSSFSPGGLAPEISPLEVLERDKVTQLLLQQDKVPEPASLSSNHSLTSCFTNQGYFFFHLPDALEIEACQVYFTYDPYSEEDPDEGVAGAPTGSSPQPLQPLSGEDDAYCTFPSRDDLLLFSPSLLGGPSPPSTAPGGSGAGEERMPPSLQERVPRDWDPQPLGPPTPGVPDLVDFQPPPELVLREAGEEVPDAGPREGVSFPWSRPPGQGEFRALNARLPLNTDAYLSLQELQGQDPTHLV
T1 sequence (looked up) 2: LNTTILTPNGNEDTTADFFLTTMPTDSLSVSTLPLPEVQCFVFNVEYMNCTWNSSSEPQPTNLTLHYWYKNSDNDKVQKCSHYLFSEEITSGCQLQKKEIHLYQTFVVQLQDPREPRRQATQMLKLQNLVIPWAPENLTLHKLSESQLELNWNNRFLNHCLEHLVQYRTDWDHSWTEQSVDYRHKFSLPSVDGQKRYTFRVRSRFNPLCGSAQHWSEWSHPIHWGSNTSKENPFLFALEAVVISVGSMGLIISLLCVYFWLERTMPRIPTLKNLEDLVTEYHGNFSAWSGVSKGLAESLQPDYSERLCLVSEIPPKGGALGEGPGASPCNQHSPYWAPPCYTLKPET

[2] = target: IL-15Rβ/γ chain (IL-2Rβ and common gamma chain) on cyno CD8+ T cells and NK cells (cynomolgus monkey); test: cell-based or functional assay

B1: W327151-TXU1.P1-V0001.uIgG1v805 (Fc fusion)
chain 1: NWVNVISADLKKIEDLIQSMHIDATLYTESDVHPSCKVTAMKCFLLELQVISLESGDASIHDTVENLIILANNSLSSNGNVTESGCKECEELEEKNIKEFLQSFVHIVQMFINTSGGGGSEPKSSDKTHTCPPCPAPELLRGPSVFLFPPKPKDTLYITREPEVTCVVVDVSHEDPEVKFNWYVDGVEVHNAKTKPREEQYNSTYRVVSVLTVLHQDWLNGKEYKCKVSNKARPAPIEKTISKAKGQPREPQVYTLPPCREEMTKNQVSLWCLVKGFYPSDIAVEWESNGQPENNYKTTPPVLDSDGSFFLYSKLTVDKSRWQQGNVFSCSVMHEALHNHYTQKSLSLSPG
chain 2: ITCPPPMSVEHADIWVKSYSLYSRERYICNSGFKRKAGTSSLTECVLNKATNVAHWTTPSLKCIRGGGGSEPKSSDKTHTCPPCPAPELLRGPSVFLFPPKPKDTLYITREPEVTCVVVDVSHEDPEVKFNWYVDGVEVHNAKTKPREEQYNSTYRVVSVLTVLHQDWLNGKEYKCKVSNKARPAPIEKTISKAKGQPREPQVCTLPPSREEMTKNQVSLSCAVKGFYPSDIAVEWESNGQPENNYKTTPPVLDSDGSFFLVSKLTVDKSRWQQGNVFSCSVMHEALHNHYTQKSLSLSPG
- EC50, % Ki67 expression, human CD8+ T cells [1]: 338 nM
- EC50, % Ki67 expression, human NK cells [1]: 29.2 nM
- Fold reduced (EC50, % Ki67), human CD8+ T cells [1]: 1840 fold
- Fold reduced (EC50, % Ki67), human NK cells [1]: 1390 fold
- EC50, % Ki67 expression, cyno donor 1 CD8+ T cells [2]: 29.2 nM
- EC50, % Ki67 expression, cyno donor 1 NK cells [2]: 65.6 nM
- Fold reduced (EC50, % Ki67), cyno donor 1 CD8+ T cells [2]: 325 fold
- Fold reduced (EC50, % Ki67), cyno donor 1 NK cells [2]: 729 fold

B2: W327151-TXU1.P1-V0006.uIgG1v805 (Fc fusion)
chain 1: NWVNVISDLKKIEDLIQSMHIDATLYTESDVHPSCKVTAMKCFLLELQVISLESGDASIHDTVENALIILANNSLSSNGNVTESGCKECEELEEKNIKEFLQSFVHIVQMFINTSGGGGSEPKSSDKTHTCPPCPAPELLRGPSVFLFPPKPKDTLYITREPEVTCVVVDVSHEDPEVKFNWYVDGVEVHNAKTKPREEQYNSTYRVVSVLTVLHQDWLNGKEYKCKVSNKARPAPIEKTISKAKGQPREPQVYTLPPCREEMTKNQVSLWCLVKGFYPSDIAVEWESNGQPENNYKTTPPVLDSDGSFFLYSKLTVDKSRWQQGNVFSCSVMHEALHNHYTQKSLSLSPG
chain 2: ITCPPPMSVEHADIWVKSYSLYSRERYICNSGFKRKAGTSSLTECVLNKATNVAHWTTPSLKCIRGGGGSEPKSSDKTHTCPPCPAPELLRGPSVFLFPPKPKDTLYITREPEVTCVVVDVSHEDPEVKFNWYVDGVEVHNAKTKPREEQYNSTYRVVSVLTVLHQDWLNGKEYKCKVSNKARPAPIEKTISKAKGQPREPQVCTLPPSREEMTKNQVSLSCAVKGFYPSDIAVEWESNGQPENNYKTTPPVLDSDGSFFLVSKLTVDKSRWQQGNVFSCSVMHEALHNHYTQKSLSLSPG
- EC50, % Ki67 expression, human CD8+ T cells [1]: 13.5 nM
- EC50, % Ki67 expression, human NK cells [1]: 1.58 nM
- Fold reduced (EC50, % Ki67), human CD8+ T cells [1]: 73.5 fold
- Fold reduced (EC50, % Ki67), human NK cells [1]: 75.1 fold
- EC50, % Ki67 expression, cyno donor 2 CD8+ T cells [2]: 2.59 nM
- EC50, % Ki67 expression, cyno donor 2 NK cells [2]: 1.04 nM
- Fold reduced (EC50, % Ki67), cyno donor 2 CD8+ T cells [2]: 153 fold
- Fold reduced (EC50, % Ki67), cyno donor 2 NK cells [2]: 130 fold

B3: W327151-TXU1.P1-V0005.uIgG1v805 (Fc fusion)
chain 1: NWVNVISDLKKIEDLIQSMHIDATLYTESDVHPSCKVTAMKCFLLELQVISLESGDASIHDTVEANLIILANNSLSSNGNVTESGCKECEELEEKNIKEFLQSFVHIVQMFINTSGGGGSEPKSSDKTHTCPPCPAPELLRGPSVFLFPPKPKDTLYITREPEVTCVVVDVSHEDPEVKFNWYVDGVEVHNAKTKPREEQYNSTYRVVSVLTVLHQDWLNGKEYKCKVSNKARPAPIEKTISKAKGQPREPQVYTLPPCREEMTKNQVSLWCLVKGFYPSDIAVEWESNGQPENNYKTTPPVLDSDGSFFLYSKLTVDKSRWQQGNVFSCSVMHEALHNHYTQKSLSLSPG
chain 2: ITCPPPMSVEHADIWVKSYSLYSRERYICNSGFKRKAGTSSLTECVLNKATNVAHWTTPSLKCIRGGGGSEPKSSDKTHTCPPCPAPELLRGPSVFLFPPKPKDTLYITREPEVTCVVVDVSHEDPEVKFNWYVDGVEVHNAKTKPREEQYNSTYRVVSVLTVLHQDWLNGKEYKCKVSNKARPAPIEKTISKAKGQPREPQVCTLPPSREEMTKNQVSLSCAVKGFYPSDIAVEWESNGQPENNYKTTPPVLDSDGSFFLVSKLTVDKSRWQQGNVFSCSVMHEALHNHYTQKSLSLSPG
- EC50, % Ki67 expression, human CD8+ T cells [1]: 352 nM
- EC50, % Ki67 expression, human NK cells [1]: 106 nM
- Fold reduced (EC50, % Ki67), human CD8+ T cells [1]: 1910 fold
- Fold reduced (EC50, % Ki67), human NK cells [1]: 5030 fold
- EC50, % Ki67 expression, cyno donor 2 CD8+ T cells [2]: 100 nM
- EC50, % Ki67 expression, cyno donor 2 NK cells [2]: 26.3 nM
- Fold reduced (EC50, % Ki67), cyno donor 2 CD8+ T cells [2]: 5890 fold
- Fold reduced (EC50, % Ki67), cyno donor 2 NK cells [2]: 3290 fold

Second part, the binder after the results:

- EC50, % Ki67 expression, human CD8+ T cells [1]: 22.5 nM
- EC50, % Ki67 expression, human NK cells [1]: 6.72 nM
- Fold reduced (EC50, % Ki67), human CD8+ T cells [1]: 122 fold
- Fold reduced (EC50, % Ki67), human NK cells [1]: 320 fold
- EC50, % Ki67 expression, cyno donor 1 CD8+ T cells [2]: 3.37 nM
- EC50, % Ki67 expression, cyno donor 1 NK cells [2]: 10.3 nM
- Fold reduced (EC50, % Ki67), cyno donor 1 CD8+ T cells [2]: 37 fold
- Fold reduced (EC50, % Ki67), cyno donor 1 NK cells [2]: 115 fold
B4: W327151-TXU1.P1-V0004.uIgG1v805 (Fc fusion)
chain 1: NWVNVISDLKAKIEDLIQSMHIDATLYTESDVHPSCKVTAMKCFLLELQVISLESGDASIHDTVENLIILANNSLSSNGNVTESGCKECEELEEKNIKEFLQSFVHIVQMFINTSGGGGSEPKSSDKTHTCPPCPAPELLRGPSVFLFPPKPKDTLYITREPEVTCVVVDVSHEDPEVKFNWYVDGVEVHNAKTKPREEQYNSTYRVVSVLTVLHQDWLNGKEYKCKVSNKARPAPIEKTISKAKGQPREPQVYTLPPCREEMTKNQVSLWCLVKGFYPSDIAVEWESNGQPENNYKTTPPVLDSDGSFFLYSKLTVDKSRWQQGNVFSCSVMHEALHNHYTQKSLSLSPG
chain 2: ITCPPPMSVEHADIWVKSYSLYSRERYICNSGFKRKAGTSSLTECVLNKATNVAHWTTPSLKCIRGGGGSEPKSSDKTHTCPPCPAPELLRGPSVFLFPPKPKDTLYITREPEVTCVVVDVSHEDPEVKFNWYVDGVEVHNAKTKPREEQYNSTYRVVSVLTVLHQDWLNGKEYKCKVSNKARPAPIEKTISKAKGQPREPQVCTLPPSREEMTKNQVSLSCAVKGFYPSDIAVEWESNGQPENNYKTTPPVLDSDGSFFLVSKLTVDKSRWQQGNVFSCSVMHEALHNHYTQKSLSLSPG

- EC50, % Ki67 expression, human CD8+ T cells [1]: 174 nM
- EC50, % Ki67 expression, human NK cells [1]: 19.1 nM
- Fold reduced (EC50, % Ki67), human CD8+ T cells [1]: 947 fold
- Fold reduced (EC50, % Ki67), human NK cells [1]: 911 fold
B5: W327151-TXU1.P1-V0002.uIgG1v805 (Fc fusion)
chain 1: NWVNVISDALKKIEDLIQSMHIDATLYTESDVHPSCKVTAMKCFLLELQVISLESGDASIHDTVENLIILANNSLSSNGNVTESGCKECEELEEKNIKEFLQSFVHIVQMFINTSGGGGSEPKSSDKTHTCPPCPAPELLRGPSVFLFPPKPKDTLYITREPEVTCVVVDVSHEDPEVKFNWYVDGVEVHNAKTKPREEQYNSTYRVVSVLTVLHQDWLNGKEYKCKVSNKARPAPIEKTISKAKGQPREPQVYTLPPCREEMTKNQVSLWCLVKGFYPSDIAVEWESNGQPENNYKTTPPVLDSDGSFFLYSKLTVDKSRWQQGNVFSCSVMHEALHNHYTQKSLSLSPG
chain 2: ITCPPPMSVEHADIWVKSYSLYSRERYICNSGFKRKAGTSSLTECVLNKATNVAHWTTPSLKCIRGGGGSEPKSSDKTHTCPPCPAPELLRGPSVFLFPPKPKDTLYITREPEVTCVVVDVSHEDPEVKFNWYVDGVEVHNAKTKPREEQYNSTYRVVSVLTVLHQDWLNGKEYKCKVSNKARPAPIEKTISKAKGQPREPQVCTLPPSREEMTKNQVSLSCAVKGFYPSDIAVEWESNGQPENNYKTTPPVLDSDGSFFLVSKLTVDKSRWQQGNVFSCSVMHEALHNHYTQKSLSLSPG
